Results taken from patent publication US20100316634A1 (published 2010).

Assays:
[1] = target: T1, recombinant human interleukin 5 (IL-5) (human, UniProt P05113 20-134, 125I label (Bolton-Hunter reagent) in the receptor binding inhibition and colony lift assays); assay: receptor binding inhibition, 125I-IL-5 on Drosophila membranes with the IL-5R alpha chain
T1 construct: also called human IL-5; hIL-5
Procedure: Membrane extracts of Drosophila S2 cells expressing the […] of the human IL-5 Receptor (IL-5R) were used to measure the effect of antibody on IL-5 binding to receptor. To prepare the membranes, 10⁹ cells were pelleted at 1000×g at 4° C. for 10 min. The cell pellet was frozen in a dry ice/ethanol bath for 15 min. The pellet was thawed, resuspended in 10 ml PBS at 4° C. and pelleted at 1000×g for 10 min. The cell pellet was washed 2× in PBS and resuspended in 13.5 ml Hypotonic buffer (10 mM Tris pH 7.5, 3 mM MgCl₂, 1 mM dithiothreitol, 1 mM phenylmethylsulfonyl fluoride, 1 uM leupeptin, 1 uM pepstatin A) and incubated on ice for 5 min. The cell suspension was homogenized in a 15 ml Dounce homogenizer and brought to a final concentration of 0.25 M sucrose with a solution of 2.5 M sucrose. Cell debris was removed by a 15 min centrifugation at 1000×g. Cell membranes were pelleted at 100,000×g at 4° C. for 90 min and resuspended in 50 ml of 10 mM Tris pH 7.5, 3 mM MgCl₂, 250 mM sucrose, and stored at −70° C.
Assays with Drosophila membranes containing receptor were performed in MultiscreenGV plates (Millipore Corp., Bedford, Mass.) using Drosophila tissue culture medium M3 (Lindquist et al., Drosophila Inf. Serv., 58: 163 (1982)) containing 25 mM HEPES buffer pH 7.2 and 0.1% BSA (Binding Buffer). Wells were pre-blocked with 0.1 ml binding buffer. […] Filters were dried and counted.

[2] = target: T1, recombinant human interleukin 5 (IL-5); assay: optical biosensor

B1: recombinant Fab of mAb 2B6 with C-terminal hexa-His on the heavy chain (Fab, V domains shown)
VH: QVQLKESGPGLVAPSQSLSITCTVSGFSLTSYSVHWVRQPPGKGLEWLGVIWASGGTDYNSALMSRLSISKDNSKSQVFLKLNSLQTDDTAMYYCARDPPSSLLRLDYWGQGTTLTVSS
VL: DIVMTQSPSSLSVSAGEKVTMSCKSSQSLLNSGNQKNYLAWYQQKPGQPPKLLIYGASTRESGVPDRFTGSGSGTDFTLSISSVQAEDLAVYYCQNVHSFPFTFGSGTELEIK
notes: Expressed in E. coli from pMKFabGene3H after removal of gene III; N-terminal residues may be set by the PCR primers; also called Fab fragment from 2B6; 2B6 Fab; not shown: murine gamma 1 constant part of the Fd (CH1 to hinge); murine kappa constant region
- IC50 [1]: ~7.5 µg/mL
- Kd [2]: ~0.09 nM
